Measured values reported in article PMC10511499, “Conserved roles for the dynein intermediate chain and Ndel1 in assembly and activation of dynein” (Nature Communications, 2023).

B2: yeast Ndl1 coiled-coil domain (Ndl1^CC, residues 2-132) (domain or fragment, S. cerevisiae, UniProt Q06568 2-132, looked up)
chain: VPNLDLETAIQIISSLETQLSELEGATKEYENDLEQVISKLKSDLLESQQQNKCNKKQITDLEIQVDELENENIQLRNKIETLQLESDRRLERNVLLEHELLDTKEALQKLRVSKEEATSGETRRNTRSLP
notes: Ndl1, S. cerevisiae, coiled-coil domain, residues 2-132; No cleavage of the tags is described; also called StrepII-sfGFP-Ndl1^CC; source: E. coli BL21-CodonPlus (DE3)-RIPL, purified (Strep-tactin XT, SEC)
B5: human Ndel1 coiled-coil domain (Ndel1^CC, residues 1-195) (domain or fragment, UniProt Q9GZM8 1-195, looked up)
chain: MDGEDIPDFSSLKEETAYWKELSLKYKQSFQEARDELVEFQEGSRELEAELEAQLVQAEQRNRDLQADNQRLKYEVEALKEKLEHQYAQSYKQVSVLEDDLSQTRAIKEQLHKYVRELEQANDDLERAKRATIVSLEDFEQRLNQAIERNAFLESELDEKESLLVSVQRLKDEARDLRQELAVRERQQEVTRKSA
notes: Ndel1, human, coiled-coil domain, residues 1-195; also called NudEL^CC; source: E. coli BL21-CodonPlus (DE3)-RIPL, purified (Strep-tactin XT, HiTrap Q, SEC)

Columns and labels:
[1] = molecular target: T1, yeast dynein complex, wild type (Dyn1, Pac11, Dyn3, Dyn2) (S. cerevisiae, UniProt P36022 1-4092; P40960 1-533; Q04949 1-312; Q02647 1-92, JF503-, JFX549- or JFX646-HaloTag ligand on the HaloTag); assay: TIRF microscopy microtubule recruitment assay; yeast proteins; dynein on taxol-stabilised microtubules held by anti-tubulin antibody; fluorescent partner flowed in, TEV buffer with 1 mM DTT, 5-10 min; intensity along microtubules; settings: both partners purified
T1 construct: dynein heavy chain Dyn1, S. cerevisiae; dynein intermediate chain Pac11, S. cerevisiae; dynein light-intermediate chain Dyn3, S. cerevisiae; dynein light chain Dyn2, S. cerevisiae; also called WT dynein; HaloTag-Dyn1 complex; source: S. cerevisiae, all genes overexpressed from GAL1p; purified (IgG sepharose, TEV elution); not shown: 8His (also printed 6xHis), N-terminal, cleaved; ZZ, N-terminal, …

[2] = molecular target: T2, yeast dynein^∆ICN complex (Pac11 lacking its N-terminal 43 residues) (S. cerevisiae, UniProt P36022 1-4092; P40960 44-533; Q04949 1-312; Q02647 1-92, JF503-, JFX549- or JFX646-HaloTag ligand on the HaloTag); assay: as above; settings: both partners purified
T2 construct: dynein heavy chain Dyn1, S. cerevisiae; dynein intermediate chain Pac11, S. cerevisiae, N-terminal 43 residues deleted; dynein light-intermediate chain Dyn3, S. cerevisiae; dynein light chain Dyn2, S. cerevisiae; also called Pac11^∆ICN dynein; source: S. cerevisiae, all genes overexpressed from GAL1p; purified (IgG sepharose, TEV elution); not shown: 8His (also printed 6xHis), N-terminal, …

[3] = molecular target: the molecule itself; assay: mass photometry; yeast proteins; mixed 1:1 at 50-100 nM each, 1-2 min, measured at 10-20 nM; 50 mM Tris pH 8.0, 150 mM K-acetate
[4] = molecular target: B2; assay: as above; settings: both partners purified
[5] = molecular target: B5; assay: mass photometry; human proteins; preincubated at 0.5-1 µM for 5 min at room temperature, 1:1 molar ratio, measured at 5-20 nM; 90 mM HEPES-KOH pH 7.4, 50 mM K-acetate; settings: both partners purified
[6] = molecular target: the molecule itself; assay: as above

T1 sequence (P36022 whole entry, chain 1 of 4): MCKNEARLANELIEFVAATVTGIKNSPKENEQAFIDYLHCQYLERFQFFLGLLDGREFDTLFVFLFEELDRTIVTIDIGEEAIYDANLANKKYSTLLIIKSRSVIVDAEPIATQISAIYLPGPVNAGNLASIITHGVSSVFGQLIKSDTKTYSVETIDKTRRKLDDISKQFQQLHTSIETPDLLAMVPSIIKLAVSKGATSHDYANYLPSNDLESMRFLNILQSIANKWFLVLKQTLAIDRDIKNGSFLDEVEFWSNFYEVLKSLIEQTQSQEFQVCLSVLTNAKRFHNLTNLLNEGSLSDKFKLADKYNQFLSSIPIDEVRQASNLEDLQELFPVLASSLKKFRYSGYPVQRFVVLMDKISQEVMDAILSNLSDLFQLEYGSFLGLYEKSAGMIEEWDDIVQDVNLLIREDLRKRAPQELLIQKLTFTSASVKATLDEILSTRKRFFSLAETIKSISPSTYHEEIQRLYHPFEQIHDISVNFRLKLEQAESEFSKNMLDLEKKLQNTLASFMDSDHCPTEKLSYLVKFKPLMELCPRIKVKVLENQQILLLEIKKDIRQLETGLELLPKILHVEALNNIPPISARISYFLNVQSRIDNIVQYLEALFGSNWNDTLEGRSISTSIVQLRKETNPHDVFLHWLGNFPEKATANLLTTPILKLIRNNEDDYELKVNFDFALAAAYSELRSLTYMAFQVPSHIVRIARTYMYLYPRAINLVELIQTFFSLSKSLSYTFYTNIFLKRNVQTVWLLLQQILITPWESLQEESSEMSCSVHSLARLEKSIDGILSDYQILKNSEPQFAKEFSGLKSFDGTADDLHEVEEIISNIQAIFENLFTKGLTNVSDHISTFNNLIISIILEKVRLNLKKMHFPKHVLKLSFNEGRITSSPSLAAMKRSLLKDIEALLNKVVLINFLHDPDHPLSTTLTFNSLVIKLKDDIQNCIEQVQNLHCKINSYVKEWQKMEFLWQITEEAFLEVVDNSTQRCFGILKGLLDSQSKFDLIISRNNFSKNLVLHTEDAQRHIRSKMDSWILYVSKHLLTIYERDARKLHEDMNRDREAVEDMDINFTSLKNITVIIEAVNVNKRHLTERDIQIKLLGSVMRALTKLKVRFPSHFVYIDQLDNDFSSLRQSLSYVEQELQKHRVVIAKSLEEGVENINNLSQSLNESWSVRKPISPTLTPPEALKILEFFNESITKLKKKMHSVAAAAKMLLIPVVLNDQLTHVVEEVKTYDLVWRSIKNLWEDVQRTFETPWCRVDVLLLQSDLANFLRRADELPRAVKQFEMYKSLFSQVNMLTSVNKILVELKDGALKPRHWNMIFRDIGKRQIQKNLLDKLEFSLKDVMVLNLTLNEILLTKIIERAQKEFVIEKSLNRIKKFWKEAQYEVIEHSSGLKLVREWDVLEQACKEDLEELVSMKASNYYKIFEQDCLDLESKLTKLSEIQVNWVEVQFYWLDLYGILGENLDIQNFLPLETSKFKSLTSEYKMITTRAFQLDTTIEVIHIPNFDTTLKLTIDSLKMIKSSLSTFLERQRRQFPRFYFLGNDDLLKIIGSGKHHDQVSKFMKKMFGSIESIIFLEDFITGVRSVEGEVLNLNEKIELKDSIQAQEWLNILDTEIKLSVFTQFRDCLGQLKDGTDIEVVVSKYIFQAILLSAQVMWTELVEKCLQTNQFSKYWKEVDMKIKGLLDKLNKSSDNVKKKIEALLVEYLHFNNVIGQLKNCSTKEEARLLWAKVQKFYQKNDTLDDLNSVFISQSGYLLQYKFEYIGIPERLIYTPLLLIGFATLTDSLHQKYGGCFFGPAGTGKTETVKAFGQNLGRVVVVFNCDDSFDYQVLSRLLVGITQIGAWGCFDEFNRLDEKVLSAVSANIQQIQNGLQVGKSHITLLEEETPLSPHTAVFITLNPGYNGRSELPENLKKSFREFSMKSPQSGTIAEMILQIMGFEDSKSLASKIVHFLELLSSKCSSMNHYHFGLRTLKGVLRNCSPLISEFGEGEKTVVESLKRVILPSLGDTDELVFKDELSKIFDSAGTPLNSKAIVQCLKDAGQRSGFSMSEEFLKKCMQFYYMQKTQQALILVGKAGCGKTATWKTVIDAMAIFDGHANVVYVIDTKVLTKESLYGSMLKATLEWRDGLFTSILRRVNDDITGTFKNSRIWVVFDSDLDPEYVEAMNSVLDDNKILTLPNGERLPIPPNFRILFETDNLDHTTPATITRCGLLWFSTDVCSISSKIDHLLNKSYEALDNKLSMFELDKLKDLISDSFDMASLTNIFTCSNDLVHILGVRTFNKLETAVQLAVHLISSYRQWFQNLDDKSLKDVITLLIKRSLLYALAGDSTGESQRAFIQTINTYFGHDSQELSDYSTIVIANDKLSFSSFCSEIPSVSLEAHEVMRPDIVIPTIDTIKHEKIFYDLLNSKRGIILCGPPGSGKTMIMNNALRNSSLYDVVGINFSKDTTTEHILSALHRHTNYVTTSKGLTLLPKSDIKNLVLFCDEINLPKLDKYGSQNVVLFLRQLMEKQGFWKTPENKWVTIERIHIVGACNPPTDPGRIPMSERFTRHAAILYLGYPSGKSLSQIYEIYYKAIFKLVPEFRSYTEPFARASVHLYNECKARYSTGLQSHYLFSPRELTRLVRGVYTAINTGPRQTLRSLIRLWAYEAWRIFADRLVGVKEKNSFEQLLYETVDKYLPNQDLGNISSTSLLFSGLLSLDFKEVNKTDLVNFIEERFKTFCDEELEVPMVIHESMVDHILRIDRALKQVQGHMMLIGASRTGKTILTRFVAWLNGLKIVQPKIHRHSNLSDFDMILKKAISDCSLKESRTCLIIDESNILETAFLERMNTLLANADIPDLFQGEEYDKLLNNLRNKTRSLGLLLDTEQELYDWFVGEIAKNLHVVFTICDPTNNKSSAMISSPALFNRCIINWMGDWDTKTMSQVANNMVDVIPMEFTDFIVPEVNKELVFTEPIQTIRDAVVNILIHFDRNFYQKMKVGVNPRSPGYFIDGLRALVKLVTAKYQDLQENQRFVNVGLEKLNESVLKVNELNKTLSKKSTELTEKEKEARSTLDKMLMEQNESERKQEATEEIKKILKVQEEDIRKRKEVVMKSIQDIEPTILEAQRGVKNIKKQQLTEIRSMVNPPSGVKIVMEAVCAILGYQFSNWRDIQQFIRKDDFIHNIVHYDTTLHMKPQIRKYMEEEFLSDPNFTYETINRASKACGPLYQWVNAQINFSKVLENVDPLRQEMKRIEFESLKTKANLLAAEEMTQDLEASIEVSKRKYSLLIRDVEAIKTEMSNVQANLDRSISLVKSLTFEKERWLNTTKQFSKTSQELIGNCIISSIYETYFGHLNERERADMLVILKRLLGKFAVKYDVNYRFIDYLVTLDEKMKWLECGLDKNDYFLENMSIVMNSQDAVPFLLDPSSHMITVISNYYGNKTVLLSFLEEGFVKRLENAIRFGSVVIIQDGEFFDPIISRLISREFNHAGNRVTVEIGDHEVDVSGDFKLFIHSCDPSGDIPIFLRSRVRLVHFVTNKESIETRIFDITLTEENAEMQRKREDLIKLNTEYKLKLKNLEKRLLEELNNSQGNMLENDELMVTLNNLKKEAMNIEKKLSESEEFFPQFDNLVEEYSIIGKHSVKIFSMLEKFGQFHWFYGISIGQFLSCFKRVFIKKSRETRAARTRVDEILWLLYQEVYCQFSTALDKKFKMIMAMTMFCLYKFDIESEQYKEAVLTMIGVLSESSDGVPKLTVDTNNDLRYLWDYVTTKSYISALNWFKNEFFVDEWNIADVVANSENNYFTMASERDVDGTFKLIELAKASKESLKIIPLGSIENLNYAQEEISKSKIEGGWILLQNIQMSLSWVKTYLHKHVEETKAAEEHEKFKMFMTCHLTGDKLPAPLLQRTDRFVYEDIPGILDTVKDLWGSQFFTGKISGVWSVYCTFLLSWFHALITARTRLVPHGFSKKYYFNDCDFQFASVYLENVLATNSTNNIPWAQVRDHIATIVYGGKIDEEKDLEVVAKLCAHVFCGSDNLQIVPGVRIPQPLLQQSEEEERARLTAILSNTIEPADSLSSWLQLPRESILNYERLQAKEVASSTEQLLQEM
T1 sequence (P40960 whole entry, chain 2 of 4): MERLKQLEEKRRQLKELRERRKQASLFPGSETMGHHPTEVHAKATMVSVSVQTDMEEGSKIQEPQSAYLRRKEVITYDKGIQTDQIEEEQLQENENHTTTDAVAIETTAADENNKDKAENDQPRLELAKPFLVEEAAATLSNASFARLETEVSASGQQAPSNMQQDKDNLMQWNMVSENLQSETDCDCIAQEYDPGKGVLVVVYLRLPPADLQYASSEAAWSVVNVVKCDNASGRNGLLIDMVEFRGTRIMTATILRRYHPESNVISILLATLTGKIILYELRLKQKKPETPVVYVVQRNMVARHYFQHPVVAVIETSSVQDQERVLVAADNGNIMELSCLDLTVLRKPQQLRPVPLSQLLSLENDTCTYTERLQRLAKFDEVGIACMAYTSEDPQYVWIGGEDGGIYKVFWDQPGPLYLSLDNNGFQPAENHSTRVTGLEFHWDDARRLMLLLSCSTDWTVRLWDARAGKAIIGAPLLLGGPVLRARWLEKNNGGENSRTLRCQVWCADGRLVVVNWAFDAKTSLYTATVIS
T1 sequence (Q04949 whole entry, chain 3 of 4): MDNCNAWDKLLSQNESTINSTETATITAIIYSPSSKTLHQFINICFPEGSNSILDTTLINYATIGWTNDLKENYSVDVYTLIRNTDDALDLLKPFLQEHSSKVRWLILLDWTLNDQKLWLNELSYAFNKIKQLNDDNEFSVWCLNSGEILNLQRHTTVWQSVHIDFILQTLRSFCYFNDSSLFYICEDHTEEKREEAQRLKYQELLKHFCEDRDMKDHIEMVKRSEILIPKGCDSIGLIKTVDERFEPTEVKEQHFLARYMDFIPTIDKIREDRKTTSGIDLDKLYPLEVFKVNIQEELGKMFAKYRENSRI
T1 sequence (Q02647 whole entry, chain 4 of 4): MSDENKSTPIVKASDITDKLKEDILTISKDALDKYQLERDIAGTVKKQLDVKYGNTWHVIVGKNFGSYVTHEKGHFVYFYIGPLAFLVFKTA

B1: full-length yeast Pac1 with C-terminal FLAG-SNAPf (natural protein, S. cerevisiae, UniProt P39946 1-494, looked up)
chain: MTNWQQQLPLTDTQKNELDKSVLRYLNWNYKQTVRHEHAQDYESVRHAIVTLSGFLLQESVDRQEFISNNDTSNESMVDIDELLLPKKWNSIVRLQKKIIELEQNTETLVSQIKDLNTQVSELAQFKPTTSNGTSAHNVLKWIPRNLPSCLINVESSVTSVKLHPNLPIVFVATDHGKLYAFDLFNYTIPLASLQSHTKAITSMDVLFTNYTNSSKKNYLVIVTASKDLQIHVFKWVSEECKFQQIRSLLGHEHIVSAVKIWQKNNDVHIASCSRDQTVKIWDFHNGWSLKTFQPHSQWVRSIDVLGDYIISGSHDTTLRLTHWPSGNGLSVGTGHEFPIEKVKFIHFIEDSPEIRFRTPSTDRYKNWGMQYCVSASRDRTIKIWEIPLPTLMAHRAPIPNPTDSNFRCVLTLKGHLSWVRDISIRGQYLFSCADDKSVRCWDLNTGQCLHVWEKLHTGFVNCLDLDVDFDSNVTPRQMMVTGGLDCKSNVFMR
notes: Pac1, yeast homolog of LIS1, full length; also called WT Pac1; Pac1-SNAPf; source: S. cerevisiae, overexpressed from GAL1p; purified (IgG beads, TEV elution); not shown: 8xHis, N-terminal, cleaved; ZZ, N-terminal, cleaved; SNAPf, C-terminal, kept
binding result [1]: binds
binding result [2]: binds
stoichiometry N [3]: 2
stoichiometry N [4]: 1 Pac1 dimer per Ndl1 dimer

B2
binding result [1]: binds
stoichiometry N [3]: 2

B3: yeast Ndl1^CC E64A R78A (domain or fragment, S. cerevisiae, UniProt Q06568 2-132, looked up)
chain: VPNLDLETAIQIISSLETQLSELEGATKEYENDLEQVISKLKSDLLESQQQNKCNKKQITDLAIQVDELENENIQLANKIETLQLESDRRLERNVLLEHELLDTKEALQKLRVSKEEATSGETRRNTRSLP
notes: Ndl1, S. cerevisiae, residues 2-132, E64 and R78 changed to alanines; also called interface 2 mutant of Ndl1^CC; source: E. coli BL21-CodonPlus (DE3)-RIPL, purified
binding result [1]: binds

B4: LIS1, wild type, as used in mass photometry (construct not told) (natural protein, human, UniProt P43034 1-410, looked up)
chain: MVLSQRQRDELNRAIADYLRSNGYEEAYSVFKKEAELDVNEELDKKYAGLLEKKWTSVIRLQKKVMELESKLNEAKEEFTSGGPLGQKRDPKEWIPRPPEKYALSGHRSPVTRVIFHPVFSVMVSASEDATIKVWDYETGDFERTLKGHTDSVQDISFDHSGKLLASCSADMTIKLWDFQGFECIRTMHGHDHNVSSVAIMPNGDHIVSASRDKTIKMWEVQTGYCVKTFTGHREWVRMVRPNQDGTLIASCSNDQTVRVWVVATKECKAELREHEHVVECISWAPESSYSSISEATGSETKKSGKPGPFLLSGSRDKTIKMWDVSTGMCLMTLVGHDNWVRGVLFHSGGKFILSCADDKTLRVWDYKNKRCMKTLNAHEHFVTSLDFHKTAPYVVTGSVDQTVKVWECR
notes: LIS1, human; also called WT LIS1; source: Sf9 cells, purified
stoichiometry N [5]: 1 LIS1 dimer per Ndel1 dimer

B5
stoichiometry N [6]: 2

B6: yeast Nip100 coiled-coil 1 (Nip100^CC1, residues 97-377) with N-terminal eGFP (domain or fragment, S. cerevisiae, UniProt P33420 97-377, looked up)
chain: EHSLLNGNAAQETIKNLQVKCESLASKLNKIKIENHELKTSVEKLSTNETVLLSKISRLDKLVKELKVENGNMKTHLDNFNHLLDASDSVMAPDLDKGTLLERSHLLQGLLDQTKLSYDKAMKVQEDLLEENTQLLEENAVLSKKISDLGLQLQQTNNTIGDLALQIEAQSKSSNIVDKLTNDNILLTSNIKALNNELEELQAKEKLDENLRITYEQLEQELRLQLSNLQSALENEKEIAGTYIEENSRLKATLESIEAKTSHKFQSLELKVNTLQEELYQ
notes: Nip100, yeast homolog of p150^Glued, coiled-coil 1, residues 97-377; also called GST-eGFP-Nip100^CC1; source: E. coli BL21-CodonPlus (DE3)-RIPL, purified (glutathione agarose, Ulp1 digest, SEC); not shown: GST, N-terminal, cleaved; SUMO, N-terminal, cleaved
binding result [1]: binds

B7: full-length yeast Ndl1 with C-terminal FLAG-SNAPf (natural protein, S. cerevisiae, UniProt Q06568 1-189, looked up)
chain: MVPNLDLETAIQIISSLETQLSELEGATKEYENDLEQVISKLKSDLLESQQQNKCNKKQITDLEIQVDELENENIQLRNKIETLQLESDRRLERNVLLEHELLDTKEALQKLRVSKEEATSGETRRNTRSLPSQNKKMKLFKDTIKVSTTSSTLYLQNMAKTNNAARSHCNIPNTQITQSTVIATTSSV
modifications: JFX554-SNAP or JFX650-SNAP ligand on the SNAPf tag
notes: Ndl1, yeast homolog of Ndel1, full length; also called Ndl1-SNAPf; source: S. cerevisiae, overexpressed from GAL1p; purified (IgG beads, TEV elution, SEC); not shown: SNAPf, C-terminal, kept; ZZ, C-terminal, cleaved; 8xHis, C-terminal, cleaved
binding result [1]: binds
